# Measurements from publication PMC6905856, “Movement of accessible plasma membrane cholesterol by the GRAMD1 lipid transfer protein complex” (eLife, 2019).
# B1: EGFP-tagged luminal helix region of wild-type GRAMD1b (EGFP–helix: EGFP–GRAMD1b 674–718) (domain or fragment, human, UniProt Q3KR37-1 674-718, looked up)
# chain: SQTEWAQLLESQQKYHDTELQKWREIIKSSVMLLDQMKDSLINLQ
# notes: GRAMD1b, human, luminal helix region, residues 674-718; Predicted molecular weight ~35 kDa; also called EGFP-linker-GRAMD1b luminal helix; EGFP–(GGGS)3–GRAMD1b luminal helix (674–718); source: E. coli BL21-DE3 Rosetta, purified (Co-TALON or Ni-NTA, gel filtration on Superdex 200 increase); not shown: EGFP with (GGGS)3 linker, N-terminal, kept
# Target: the molecule itself
# Assay: SEC; purified EGFP fusion of the luminal helix region alone on Superdex 200 increase 10/300 GL; 20 mM HEPES, 300 mM NaCl, 10% glycerol, 0.5 mM TCEP, pH 7.5; self-association judged from the elution volume
protein,measurement,value
B1,binding result,binds
